Results on two molecules are retold here after PMC4650713 (2015).

The target in this assay is BaxΔC21 (UniProt Q07812 1-171, C62S | C126S). In words: SPR.
BaxΔC21, sequence (Q07812 1-171 C62S/C126S): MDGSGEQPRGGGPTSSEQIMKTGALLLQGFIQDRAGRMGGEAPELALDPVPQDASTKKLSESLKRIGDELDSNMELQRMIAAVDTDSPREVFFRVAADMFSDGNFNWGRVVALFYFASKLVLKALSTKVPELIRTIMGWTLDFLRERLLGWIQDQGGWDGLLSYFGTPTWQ

Regarding SESQEDIIRNIARHLAQVGDSMDRSIPPGLVNGL [BidBH3 peptide], the IC50 worked out at 306 nM. In turn, SESQEDIIRNIARHLRQVGDSMDRSIPPGLVNGL [BidBH3 A91R] registered an IC50 of 41 nM.
